Reference: patent US20080213296A1
pKd: −log10 of the molar value. Where “and” joins values, the source holds several entries; their conditions need not be identical. Equal values may be shown once.

Key:
[1] = biological target: HIV 89.6 gp140 envelope protein (cleaved gp140 preparation, oligomers) (HIV 89.6 (Clade B) primary isolate); assay: SPR, sCD4-ligated gp140
[2] = biological target: HIV 89.6 gp140 envelope protein (cleaved gp140 preparation, oligomers) (HIV 89.6 (Clade B) primary isolate); assay: SPR, D1 peptide over 89.6 gp140 captured on immobilized CD4 (CD4-gp140 complex)
[3] = biological target: HIV 89.6 gp140 envelope protein (cleaved gp140 preparation, oligomers) (HIV 89.6 (Clade B) primary isolate); assay: SPR, D1 peptide over directly immobilized 89.6 gp140, no CD4
[4] = biological target: recombinant HIV ADA gp41 protein (HIV ADA); assay: SPR, 89.6 gp120 (100 µg/ml) over immobilized ADA gp41
[5] = biological target: soluble CD4 (UniProt P01730); assay: SPR
[6] = biological target: soluble CD4 (UniProt P01730); assay: SPR, gp120 over immobilized CD4
[7] = biological target: recombinant HIV ADA gp41 protein (HIV ADA); assay: SPR, 89.6 gp120 pre-incubated with 0.3 mg/ml CD4, over immobilized ADA gp41
[8] = biological target: HIV 89.6 gp120 envelope protein (soluble) (HIV 89.6 (Clade B) primary isolate); assay: SPR capture assay, mAb pre-incubated with 89.6 gp120, captured on A32; competitor DP178 50 µg/ml
[9] = biological target: scrambled sequence DP178 peptide; assay: SPR SA-chip assay, A32 over biotinylated scrDP178
[10] = biological target: HIV 89.6 gp120 envelope protein (soluble) (HIV 89.6 (Clade B) primary isolate); assay: SPR capture assay, gp120 over immobilized A32
[11] = biological target: HIV 89.6 gp120 envelope protein (soluble) (HIV 89.6 (Clade B) primary isolate); assay: SPR SA-chip assay, 89.6 gp120 alone over biotinylated scrDP178

## CCR5-D1 peptide (CCR5 N-terminal extracellular domain peptide)
[1]
  pKd: 3.55
[2]
  pKd: 6.55
  koff: 0.00256 s⁻¹
  kon: 9000 M⁻¹ s⁻¹
[3]
  pKd: 6.00
  koff: 0.01 s⁻¹

## HIV 89.6 gp120 envelope protein (soluble)
[4]
  RU bound: 300 RU
[5]
  t1/2 of binding: 105 min
[6]
  pKd: 7.64
  koff: 0.00011 s⁻¹
[7]
  RU bound: 850 RU

## HIV DH12 gp120 (soluble, monomeric)
[5]
  t1/2 of binding: 25 min
[6]
  pKd: 7.02
  koff: 0.00047 s⁻¹

## HIV JRFL gp120 (soluble, monomeric)
[5]
  t1/2 of binding: 14 min
[6]
  pKd: 6.84
  koff: 0.00088 s⁻¹

## mAb 48d (human, coreceptor binding site of gp120) (antibody)
[8]
  % blocking of DP178 binding: 80%

## mab 17b (human, CCR5/coreceptor binding site of gp120) (antibody)
[8]
  % blocking of DP178 binding: 80%

## mab 19b (human anti-gp120 V3 loop) (antibody)
[8]
  % blocking of DP178 binding: 68%

## mab A32 (human anti-gp120, conformational determinant) (antibody)
[9]
  RU (background signal): 10 RU and 20 RU
[10]
  RU bound: 2000 RU

## scrambled sequence DP178 peptide
[11]
  RU (constitutive binding): 50 RU
